These results are taken from patent US20240402174A1 (Takeda / Millennium, published 2024).

Numbering of substitutions follows the chain as printed.

In one experiment the target is T1, GII.3 VLP (norovirus Hu/GII.3/NIHIC8.1/2011/USA).
T1 construct: also called Hu/GII.3/NIHIC8.1/2011/USA
T1 chain: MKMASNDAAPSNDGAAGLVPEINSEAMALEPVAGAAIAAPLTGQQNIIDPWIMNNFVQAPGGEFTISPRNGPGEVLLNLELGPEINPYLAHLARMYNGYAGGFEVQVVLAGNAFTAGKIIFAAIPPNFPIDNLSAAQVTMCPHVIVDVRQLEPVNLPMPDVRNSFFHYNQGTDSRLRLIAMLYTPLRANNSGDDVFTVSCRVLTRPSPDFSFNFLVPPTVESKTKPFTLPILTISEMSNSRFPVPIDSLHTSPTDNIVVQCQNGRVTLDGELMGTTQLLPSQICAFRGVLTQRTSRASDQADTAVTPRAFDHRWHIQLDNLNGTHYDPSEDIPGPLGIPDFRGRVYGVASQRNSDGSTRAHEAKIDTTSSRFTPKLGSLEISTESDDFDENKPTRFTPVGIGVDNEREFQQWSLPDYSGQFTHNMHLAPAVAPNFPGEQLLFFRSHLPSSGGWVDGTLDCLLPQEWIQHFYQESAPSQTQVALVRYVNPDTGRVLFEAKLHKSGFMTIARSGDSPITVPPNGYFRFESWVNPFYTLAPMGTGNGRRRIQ
As to the kind of experiment: multiplex microsphere immunoassay.

Experiment [1] deals with T2, GII.4/Consensus VLP (norovirus GII.4 consensus sequence, UniProt P54635 1-539).
T2 chain: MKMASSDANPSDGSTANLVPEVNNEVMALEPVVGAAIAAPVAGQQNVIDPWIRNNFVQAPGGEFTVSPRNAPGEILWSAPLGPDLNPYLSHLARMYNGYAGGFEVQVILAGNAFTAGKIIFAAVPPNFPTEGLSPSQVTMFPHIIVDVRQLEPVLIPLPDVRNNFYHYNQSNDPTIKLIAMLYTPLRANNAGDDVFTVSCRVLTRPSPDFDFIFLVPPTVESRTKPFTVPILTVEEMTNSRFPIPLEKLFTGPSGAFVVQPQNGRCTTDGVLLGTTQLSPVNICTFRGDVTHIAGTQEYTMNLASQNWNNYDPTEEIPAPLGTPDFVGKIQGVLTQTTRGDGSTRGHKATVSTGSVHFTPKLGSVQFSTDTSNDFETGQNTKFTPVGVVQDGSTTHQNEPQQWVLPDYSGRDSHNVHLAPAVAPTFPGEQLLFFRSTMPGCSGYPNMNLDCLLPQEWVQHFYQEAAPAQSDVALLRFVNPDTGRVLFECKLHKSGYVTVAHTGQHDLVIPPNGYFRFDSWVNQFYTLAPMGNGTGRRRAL
As to the kind of experiment: multiplex microsphere immunoassay.

Another experiment has as its target T3, GII.4/Yerseke VLP (norovirus Hu/GII.4/Yerseke38/2006/NL, UniProt P54635 1-539).
T3 construct: also called Hu/GII.4/Yerseke38/2006/NL
T3 chain: T2 chain with T228S, G255S, G340R, S364R, V365I, K382R, T425S
The experiment in a line: multiplex microsphere immunoassay.

Experiment [2] deals with T4, GII.4/Den Haag VLP (norovirus Hu/GII.4/DenHaag89/2006/NL, UniProt P54635 1-539).
T4 construct: also called Hu/GII.4/DenHaag89/2006/NL
T4 chain: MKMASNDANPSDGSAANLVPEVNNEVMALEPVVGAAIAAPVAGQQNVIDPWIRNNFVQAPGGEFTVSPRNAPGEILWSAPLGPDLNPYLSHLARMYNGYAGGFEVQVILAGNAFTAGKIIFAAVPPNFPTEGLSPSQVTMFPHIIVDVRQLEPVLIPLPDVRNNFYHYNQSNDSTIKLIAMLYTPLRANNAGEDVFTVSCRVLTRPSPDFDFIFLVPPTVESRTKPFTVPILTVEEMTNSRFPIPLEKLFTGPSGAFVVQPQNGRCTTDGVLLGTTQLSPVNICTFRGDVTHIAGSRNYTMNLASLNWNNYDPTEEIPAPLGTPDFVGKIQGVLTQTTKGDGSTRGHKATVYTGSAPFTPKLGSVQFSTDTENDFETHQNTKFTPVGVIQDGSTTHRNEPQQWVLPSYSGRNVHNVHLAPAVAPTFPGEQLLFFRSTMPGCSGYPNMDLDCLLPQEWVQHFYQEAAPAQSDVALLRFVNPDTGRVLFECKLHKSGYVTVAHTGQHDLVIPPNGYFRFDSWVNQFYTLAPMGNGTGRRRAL
As to the kind of experiment: multiplex microsphere immunoassay.

Experiment [3] has as its target T2, GII.4/Consensus VLP. As to the kind of experiment: PGM blockade assay, serially diluted mAb.
Procedure: (§1) Plates were washed 3 times with PBST before use. […] The mixture was transferred to the PGM-coated plates including VLP-only controls and incubation carried out for 1 h at 22° C. or 37° C. Following 3 washes with PBST, detection antibody specific for the corresponding VLP was added and the plates were incubated at room temperature for 1 h and then washed 3 times with PBST. […] Following 3 washes, enzyme substrate (ABTS, KPL) was added and allowed to react for 12 min at room temperature. ABTS Peroxidase Stop Solution (KPL) was then added and plates were read at a wavelength of 450 nm in a Molecular Devices plate reader using SoftMax Pro Software (Molecular Devices, Downingtown, PA, USA) to obtain the Optical Density (GD) of each well.
(§2) The following, day corresponding dilutions incubated with VLPs were transferred to the PGM-coated plates. The OD data was curve fit and blocking titers were calculated as the supernatant dilution interpolated at 1/2 the maximum OD for the plate. The blocking titers represent the supernatant dilution that produces a 50% reduction in VLP binding to PGM. The maximum OD for the plate was calculated from the VLP only control.
The target of experiment [4] is T4, GII.4/Den Haag VLP. The experiment in a line: PGM blockade assay, serially diluted mAb.
Procedure: as §1, §2

B1: human mAb 1227 (antibody, V domains shown)
VH: QVQLVQSGGGMVQPGGSLSLSCAASGFTLSNYAMTWVRQAPGKGLEWVSSIGGSGGTTYYADSVKGRFTISRDSSMNTLYLQMSNLRAGDTAVYYCAKDKTRTLRLGYSGMDVWGQGTTVTVSS
VL: DIRLTQSPSSLSASVGDRVTITCRASQSISSYLNWYQQKPGKAPDLLIYGASSLQSGVPSRFSGSGSGTDFTLTISSLQPEDFGNYYCQQSFSTPRTFGQGTKVEL
notes: also called A1227
Usually EC50 stands for the midpoint of the concentration-response curve. With B1, the concentration for a half-maximal effect (EC50) stood at 0.006 µg/mL with GII.3 VLP, 0.216 µg/mL with GII.4/Consensus VLP [1], 0.002 µg/mL with GII.4/Yerseke VLP and 0.014 µg/mL in the experiment with GII.4/Den Haag VLP [2]. Further, the blocking titer was 447 in the experiment with GII.4/Consensus VLP [3] and 162 in the experiment with GII.4/Den Haag VLP [4].

B2: human mAb 1431 (antibody, V domains shown)
VH: QVQLVQSGGGLVQPGGSLRLSCAASGFAFSNHGMHWVRQAPGKGLEWLSYISGSTGAIHYANSVKGRFTISRDNARNSLDLQMNSLGDEDTAVYYCARDGPRPDGTGYAGPSNDYWGQGTLVSVSS
VL: EIVLTQSPASLSLSPGERATLSCKASRSISIYLAWYQQKPGQAPRLLIYDASYRAIGIPARFSGSGSGTDFTLTISNLEPEDFAVYYCQHRSSWPALTFGGGTKVEI
notes: also called A1431
B2: in the experiment with GII.3 VLP, the binding result is on record as “no binding”. For the same molecule, the EC50 with GII.4/Consensus VLP [1] came to 0.07 µg/mL; in the experiment with GII.4/Yerseke VLP, 0.007 µg/mL; with GII.4/Den Haag VLP [2], 0.024 µg/mL. The values for the blocking titer in the experiment with GII.4/Consensus VLP [3] and with GII.4/Den Haag VLP [4] were 139000 and 5720, respectively.
